Laboratory results taken from publication PMC9549473, “Triple-FRET multi-purpose fluorescent probe for three-protease detection” (RSC Advances, 2022).
Non-standard residues stand in square brackets, D forms with d. Residues, ends and D or L forms follow the SMILES beside them. Groups on a side chain read outwards from the residue. *: point of attachment. RhodamineB = CCN(CC)c1ccc2c(-c3ccccc3C(=O)*)c3ccc(=[N+](CC)CC)cc-3oc2c1; X1 = CC[N+](CC)=c1ccc2c(-c3ccccc3C(=O)*)c3c(oc-2c1)-c1ccc(N(C)C)cc1CC3; X3 = CCN(CC)c1ccc2cc(C(=O)N[C@@H](CCCCN*)C(=O)O)c(=O)oc2c1; X2 = O=C(c1ccccc1-c1c2ccc(=O)cc-2oc2cc(O)ccc12)*; AEEA = NCCOCCOCC(=O)O; Sar = CNCC(=O)O

Experiments:
[1] = target: T1, Trypsin (bovine pancreas, TPCK treated) (Bos taurus, UniProt P00760); experiment: Single protease detection with the triple-FRET 4-dye probe: trypsin; assay type: biochemical; details: 5 μM probe, Tris–HCl pH 8.0, 37 °C, 45 min, λexc 425 nm, three parallels
T1 construct: Trypsin (bovine pancreas, TPCK treated, ≥10 000 BAEE units per mg protein); purchased Sigma-Aldrich (Steinheim, Germany); host or cells: bovine pancreas (tissue-derived)
T1 sequence (P00760 24-246): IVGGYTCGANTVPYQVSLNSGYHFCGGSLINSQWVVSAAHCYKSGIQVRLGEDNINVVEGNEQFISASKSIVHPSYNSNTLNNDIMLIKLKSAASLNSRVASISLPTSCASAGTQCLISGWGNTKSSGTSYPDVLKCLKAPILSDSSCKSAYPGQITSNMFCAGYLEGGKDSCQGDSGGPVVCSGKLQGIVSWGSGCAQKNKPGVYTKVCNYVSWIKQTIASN
Description: (§1) Trypsin (bovine pancreas, TPCK treated, ≥10 000 BAEE units per mg protein) and α-chymotrypsin (bovine pancreas, TLCK treated, type VII, ≥40 units per mg protein) were ordered from Sigma-Aldrich (Steinheim, Germany). Caspase-8 (human, recombinant, active, 5000 units per mg protein) was provided by Enzo Life Sciences, Inc. (New York, USA). All enzyme species were obtained in the form of lyophilized white to off-white powders. They were reconstituted according to the providers' instructions, aliquoted in Eppendorf tubes, and finally stored at −80 °C in a deep freezer (Arctiko, Esbjerg Kommune, Denmark). […]
(§2) The appropriate amount of the 4-dye probe (1) was dissolved in 950 μL of Tris–HCl buffer. […] Afterwards, the fluorescence emission spectrum upon excitation with the light source of 425 nm was measured at the time 0 using a fluorescence spectrometer (Cary Eclipse, Agilent Technologies, Santa Carla, CA, USA). […] Fluorescence emission responses were then repeatedly measured at the times 2, 5, 8, 12, 16, 20, 25, 30, 35, 40, and 45 min. During the entire period of the experiment, a fluorimeter cuvette was placed in a cell holder preheated to 37 °C, and located inside a fluorescence spectrometer.
(§3) Additionally, the rules for individual protease recognition could be graphically presented, using fluorescence emission ratios of suitable fluorophores measured at particular times. […]

[2] = target: T2, α-chymotrypsin (bovine pancreas, TLCK treated, type VII) (Bos taurus, UniProt P00766); experiment: Single protease detection with the triple-FRET 4-dye probe: chymotrypsin; assay type: biochemical; details: 5 μM probe, Tris–HCl pH 8.0, 37 °C, 45 min, λexc 425 nm, three parallels
T2 construct: α-chymotrypsin (bovine pancreas, TLCK treated, type VII, ≥40 units per mg protein); purchased Sigma-Aldrich (Steinheim, Germany); host or cells: bovine pancreas (tissue-derived)
Description: as §1, §2, §3

[3] = target: T3, Caspase-8 (human, recombinant, active) (Homo sapiens, UniProt Q14790); experiment: Single protease detection with the triple-FRET 4-dye probe: caspase-8; assay type: biochemical; details: 5 μM probe, Tris–HCl pH 8.0 with DTT 10 mM, 37 °C, 45 min, λexc 425 nm, three parallels
T3 construct: Caspase-8 (human, recombinant, active, 5000 units per mg protein); purchased Enzo Life Sciences, Inc. (New York, USA)
Description: as §1, §2, §3

[4] = Solubility in aqueous media (Tris–HCl buffer); assay type: physicochemical; details: Tris–HCl buffer pH 8.0, from solid, read-out: solubility: stock solution that could be promptly and efficiently prepared
Experimental: (§4) Due to its size and complexity, the 4-dye probe (1) was also briefly examined from the solubility in aqueous media point of view. It turned out that at least 0.5 mM stock solution of the target substrate (1) in Tris–HCl buffer (pH = 8.0) could be promptly and efficiently prepared. For comparison, a solution of a hundredfold lower concentration (5 μM) of the 4-dye probe (1) in the same buffer media was utilized in the biological assays. The relatively high solubility of the substrate (1) could be attributed to its structure (Fig. 1), comprising six polyethylene glycol-based (PEG) spacers and two charged fluorophores (Rhodamine B and HN6). Moreover, three terminal carboxyl groups of the peptide backbone are instantly turned into corresponding carboxylate salts in a basic buffer environment, contributing to the solubility of the 4-dye probe (1) in aqueous media. Afterwards, its stability was taken into consideration. The dark blue powder obtained after freeze-drying was dissolved in an appropriate volume of Tris–HCl buffer (pH = 8.0), and shortly after that, LC-MS analysis was performed. The process was repeated a few times within one month.

[5] = Storage stability of the solid, LC-MS; assay type: physicochemical; details: solid powder stored at −80 °C; dissolved to 50 μM in Tris–HCl pH 8.0 and analysed by LC-MS, repeated over 30 days
Experimental: The isolated 4-dye substrate (1) was characterized by LC-MS analysis and HRMS. Its final purity was determined based on LC-MS analysis, testing different analytical columns, mobile phases, gradients and elution times (ESI – Fig. S6 and S7 ^†). For stability testing, the 4-dye probe (1) in the form of powder (stored at −80 °C) was dissolved in an appropriate volume of Tris–HCl buffer (pH = 8.0) to obtain a 50 μM solution and subsequently analyzed by LC-MS. This process was repeated a few times over 30 days.
as §4, with “Afterwards, its stability was taken into consideration. The dark blue powder obtained after freeze-drying was dissolved in an appropriate volume of Tris–HCl buffer (pH = 8.0), and shortly after that, LC-MS analysis was performed. The process was repeated a few times within one month.” left out

[6] = Stability in buffer solution without enzyme (fluorescence responses, blank sample); assay type: physicochemical; details: no enzyme, 5 μM probe, λexc 425 nm
Experimental: Enzyme assays were carried out in 0.1 M Tris–HCl buffer solution in ultrapure water, with the addition of NaCl (25 mM), EDTA (5 mM) and glycerol (2.5% v/v). The pH of the media (pH = 8.0) was adjusted by gradual dropwise addition of concentrated NaOH aqueous solution.
The appropriate amount of the 4-dye probe (1) was dissolved in 950 μL of Tris–HCl buffer. The resulting solution was placed into a plastic fluorimeter cuvette and preheated to 37 °C. Afterwards, the fluorescence emission spectrum upon excitation with the light source of 425 nm was measured at the time 0 using a fluorescence spectrometer (Cary Eclipse, Agilent Technologies, Santa Carla, CA, USA). Then 20 μL of 1 mM HCl with/without enzyme (trypsin or chymotrypsin) and 30 μL of physiological saline solution with/without enzyme (caspase-8) were added, resulting in a final volume of 1 mL of 5 μM 4-dye substrate (1). In the case of caspase-8, DL-dithiothreitol (10 mM) was also present in a buffer. Fluorescence emission responses were then repeatedly measured at the times 2, 5, 8, 12, 16, 20, 25, 30, 35, 40, and 45 min. During the entire period of the experiment, a fluorimeter cuvette was placed in a cell holder preheated to 37 °C, and located inside a fluorescence spectrometer.
As the three target proteases, trypsin, chymotrypsin, and caspase-8 were considered. […] During the biological testing, the emission responses of all four dyes were monitored throughout the entire period of the experiment. The assay conditions and parameters were established based on our practical observations, theoretical facts, and previous experience.[12,28,29] To obtain a uniform incubation medium suitable for all three proteases detection, the appropriate conditions for trypsin and chymotrypsin sensing were combined with those suitable for caspase-8 screening. As a result, EDTA, NaCl and glycerol were added to the Tris–HCl buffer solution, and its pH value was set to 8.0. After dissolving the intact 4-dye probe (1) in that way prepared buffer, the emission responses of all four fluorophores were monitored within 45 min of incubation at 37 °C.

trypsin = target: T4, trypsin (Bos taurus, UniProt P00760); experiment: LC-MS analysis of the probe cleaved by trypsin; assay type: biochemical, bovine; details: LC-MS of cleavage fragments
T4 construct: Trypsin (bovine pancreas, TPCK treated, ≥10 000 BAEE units per mg protein); purchased Sigma-Aldrich (Steinheim, Germany); host or cells: bovine pancreas (tissue-derived)
T4 sequence (P00760 24-246): T1 sequence (P00760 24-246)
Experimental: (§5) Following the successful development of the methodology for the separate detection of individual proteases in a sample, we decided to investigate and evaluate the possibilities of simultaneous detection of multiple enzymes. […] Consequently, some potential ambiguities and drawbacks were expected from the perspective of nonspecific cleavage of the 4-dye substrate 1 by chymotrypsin. The experiments of the two-enzyme detection were performed with all three theoretically possible pairs of the considered proteases in their low concentrations.

chymotrypsin = target: T5, chymotrypsin (Bos taurus, UniProt P00766); experiment: LC-MS analysis of the probe cleaved by chymotrypsin; assay type: biochemical, bovine; details: LC-MS of cleavage fragments; chymotrypsin 2.5 µg/mL, 2 hours
T5 construct: α-chymotrypsin (bovine pancreas, TLCK treated, type VII, ≥40 units per mg protein); purchased Sigma-Aldrich (Steinheim, Germany); host or cells: bovine pancreas (tissue-derived)
Experimental: as §5
Figure S10: LC-MS analysis of the 4-dye probe cleaved by chymotrypsin (2.5 µg/mL, 2 hours).
Fragment 1 (Rt = 1.46 min) […]

caspase-8 = target: T6, caspase-8 (Homo sapiens, UniProt Q14790); experiment: LC-MS analysis of the probe cleaved by caspase-8; assay type: biochemical; details: LC-MS of cleavage fragments
T6 construct: Caspase-8 (human, recombinant, active, 5000 units per mg protein); purchased Enzo Life Sciences, Inc. (New York, USA)

[7] = 16 min vs 0 min, Tris–HCl pH 8.0, 37 °C, mean of 3 parallels
[8] = 45 min vs 0 min, Tris–HCl pH 8.0, 37 °C, mean of 3 parallels

T3 sequence (Q14790 217-374 limits assumed): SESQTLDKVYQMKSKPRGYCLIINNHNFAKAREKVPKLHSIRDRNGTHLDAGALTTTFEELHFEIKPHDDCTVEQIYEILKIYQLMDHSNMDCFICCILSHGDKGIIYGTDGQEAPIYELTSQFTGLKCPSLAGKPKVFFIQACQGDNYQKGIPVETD
T3 sequence (Q14790 385-479 limits assumed): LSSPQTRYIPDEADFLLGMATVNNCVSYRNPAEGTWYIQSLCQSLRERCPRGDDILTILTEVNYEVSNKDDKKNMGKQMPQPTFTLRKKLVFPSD
T6 sequence (Q14790 217-374 limits assumed): as the sequence (Q14790 217-374 limits assumed) above
T6 sequence (Q14790 385-479 limits assumed): as the sequence (Q14790 385-479 limits assumed) above

lowest detectable concentration of trypsin [1]: 0.5 ng/mL
lowest detectable concentration of chymotrypsin [2]: 0.2 µg/mL
lowest detectable concentration of caspase-8 [3]: 2 U mL^−1
sites of the probe cleaved by trypsin (trypsin): cleave only their own recognizable sites
sites of the probe cleaved by caspase-8 (caspase-8): cleave only their own recognizable sites
SMILES: CCN(CC)c1ccc2cc(C(=O)N[C@@H](CCCCNC(=O)COCCOCCNC(=O)[C@H](C)NC(=O)[C@H](CC(=O)O)NC(=O)[C@@H](NC(=O)[C@H](CCC(=O)O)NC(=O)[C@H](CC(C)C)NC(=O)COCCOCCNC(=O)[C@H](CCCCNC(=O)CN(C)C(=O)c3ccccc3-c3c4ccc(=O)cc-4oc4cc(O)ccc34)NC(=O)COCCOCCNC(=O)[C@H](C)NC(=O)[C@H](CCCCN)NC(=O)[C@H](C)NC(=O)COCCOCCNC(=O)[C@H](CCCCNC(=O)CN(C)C(=O)c3ccccc3-c3c4ccc(=[N+](CC)CC)cc-4oc4cc(N(CC)CC)ccc34)NC(=O)COCCOCCNC(=O)[C@H](C)NC(=O)[C@H](Cc3ccccc3)NC(=O)[C@H](C)NC(=O)COCCOCCNC(=O)CN(C)C(=O)c3ccccc3-c3c4ccc(=[N+](CC)CC)cc-4oc4c3CCc3cc(N(C)C)ccc3-4)[C@@H](C)O)C(=O)O)c(=O)oc2c1 [4-dye probe (1)] (X1-[Sar][AEEA]AFA[AEEA]K([Sar-RhodamineB])[AEEA]AKA[AEEA]K([Sar-X2])[AEEA]LETDA[AEEA]-X3)
solubility [4]: ≥ 500 µM
stability on storage (comparable LC-MS chromatograms and peak areas) [5]: at least 30 days
fluorescence intensities of all four dyes during incubation in buffer (stability in buffer) ([6]; Tris–HCl pH 8.0 with NaCl, EDTA, glycerol, 37 °C, 45 min): practically unchanged
DEAC (I16/I0) [6, 7]: 1.03
DEAC(I16/I0)/FL(I16/I0) [6, 7]: 0.99
FL (I16/I0) [6, 7]: 1.04
HN6 (I16/I0) [6, 7]: 0.97
DEAC (I45/I0) [6, 8]: 1.05
DEAC(I45/I0)/FL(I45/I0) [6, 8]: 0.97
FL (I45/I0) [6, 8]: 1.08
HN6 (I45/I0) [6, 8]: 0.97
sites of the probe cleaved by chymotrypsin (chymotrypsin): both chymotrypsin and trypsin linkers were cleaved
